Assay results from the Immune Epitope Database (IEDB).
Blank lines part the entries; values can stand above or below the sequence they belong to.

Tests used:
HLA-B*37:01 = assay: IEDB peptide-MHC binding, purified MHC/competitive/fluorescence; ≥ and ≤ were set here for values at or beyond the usual limits of such assays; conditions: source organism: Monodelphis domestica
HLA-B*53:01 = assay: as above; conditions: source organism: Monodelphis domestica
HLA-A*31:01 = assay: as above; conditions: source organism: Monodelphis domestica
HLA-B*40:02 = assay: as above
HLA-A*68:02 [1] = assay: as above; conditions: source organism: Monodelphis domestica
HLA-B*18:01 [2] = assay: as above; conditions: source organism: Monodelphis domestica
HLA-B*14:02 = assay: as above; conditions: source organism: Monodelphis domestica
HLA-B*08:01 = assay: as above; conditions: source organism: Monodelphis domestica
HLA-B*51:01 [3] = assay: as above; conditions: source organism: Monodelphis domestica
HLA-A*11:01 = assay: as above; conditions: source organism: Monodelphis domestica
HLA-A*02:01 [4] = assay: as above; conditions: source organism: Monodelphis domestica
HLA-B*44:03 = assay: as above; conditions: source organism: Monodelphis domestica
HLA-A*03:01 [5] = assay: as above; conditions: source organism: Monodelphis domestica
HLA-B*35:01 = assay: as above; conditions: source organism: Monodelphis domestica
HLA-A*29:02 [6] = assay: as above; conditions: source organism: Monodelphis domestica
HLA-B*58:01 [7] = assay: as above; conditions: source organism: Monodelphis domestica
HLA-A*01:01 = assay: as above; conditions: source organism: Monodelphis domestica
HLA-A*24:02 = assay: as above; conditions: source organism: Monodelphis domestica
HLA-A*25:01 [8] = assay: as above; conditions: source organism: Monodelphis domestica
HLA-B*07:02 = assay: as above; conditions: source organism: Monodelphis domestica
HLA-B*40:01 = assay: IEDB peptide-MHC binding, purified MHC/competitive/fluorescence; filed as Kd, often an IC50 or EC50 that approximates it; ≥ and ≤ were set here for values at or beyond the usual limits of such assays; conditions: source organism: Bacillus cereus G9241
HLA-A*26:01 [9] = assay: as above; conditions: source organism: Giardia lamblia ATCC 50803
HLA-A*68:02 [10] = assay: as above; conditions: source organism: Giardia lamblia ATCC 50803
HLA-B*46:01 [11] = assay: as above; conditions: source organism: Giardia lamblia ATCC 50803
HLA-A*02:01 [12] = assay: as above; conditions: source organism: Giardia lamblia ATCC 50803
HLA-A*03:01 [13] = assay: as above; conditions: source organism: Giardia lamblia ATCC 50803
HLA-A*29:02 [14] = assay: as above; conditions: source organism: Giardia lamblia ATCC 50803
HLA-A*02:16 [15] = assay: as above; conditions: source organism: Giardia lamblia ATCC 50803
HLA-A*02:19 = assay: as above; conditions: source organism: Giardia lamblia ATCC 50803
HLA-A*69:01 [16] = assay: as above; conditions: source organism: Giardia lamblia ATCC 50803
HLA-A*25:01 [17] = assay: as above; conditions: source organism: Giardia lamblia ATCC 50803
HLA-A*02:03 = assay: as above; conditions: source organism: Giardia lamblia ATCC 50803
HLA-B*27:03 [18] = assay: as above; conditions: source organism: Giardia lamblia ATCC 50803
HLA-B*39:01 = assay: as above
HLA-A*02:12 [19] = assay: as above; conditions: source organism: Giardia lamblia ATCC 50803
HLA-A*26:01 [20] = assay: IEDB peptide-MHC binding, purified MHC/direct/fluorescence; filed as Kd, often an IC50 or EC50 that approximates it; ≥ and ≤ were set here for values at or beyond the usual limits of such assays; conditions: source organism: Vibrio parahaemolyticus AQ3810
HLA-B*57:01 = assay: as above; conditions: source organism: Vibrio parahaemolyticus AQ3810
HLA-B*15:01 = assay: as above; conditions: source organism: Vibrio parahaemolyticus AQ3810
HLA-B*18:01 [21] = assay: as above; conditions: source organism: Vibrio parahaemolyticus AQ3810
HLA-B*46:01 [22] = assay: as above; conditions: source organism: Vibrio parahaemolyticus AQ3810
HLA-B*51:01 [23] = assay: as above; conditions: source organism: Vibrio parahaemolyticus AQ3810
HLA-A*02:01 [24] = assay: as above; conditions: source organism: Vibrio parahaemolyticus AQ3810
HLA-A*03:01 [25] = assay: as above; conditions: source organism: Vibrio parahaemolyticus AQ3810
HLA-A*29:02 [26] = assay: as above; conditions: source organism: Vibrio parahaemolyticus AQ3810
HLA-A*02:06 = assay: as above; conditions: source organism: Vibrio parahaemolyticus AQ3810
HLA-A*02:16 [27] = assay: as above; conditions: source organism: Vibrio parahaemolyticus AQ3810
HLA-A*69:01 [28] = assay: as above; conditions: source organism: Vibrio parahaemolyticus AQ3810
HLA-B*27:03 [29] = assay: as above; conditions: source organism: Vibrio parahaemolyticus AQ3810
HLA-B*15:17 = assay: as above; conditions: source organism: Vibrio parahaemolyticus AQ3810
HLA-A*02:12 [30] = assay: as above; conditions: source organism: Vibrio parahaemolyticus AQ3810
HLA-B*58:01 [31] = assay: IEDB peptide-MHC binding, purified MHC/competitive/fluorescence; filed as Kd, often an IC50 or EC50 that approximates it; ≥ and ≤ were set here for values at or beyond the usual limits of such assays; conditions: source organism: Escherichia coli F11
HLA-A*02:05 = assay: IEDB peptide-MHC binding, purified MHC/competitive/radioactivity; filed as Kd, often an IC50 or EC50 that approximates it; ≥ and ≤ were set here for values at or beyond the usual limits of such assays; conditions: source organism: Homo sapiens
HLA-B*44:02 = assay: IEDB peptide-MHC binding, purified MHC/competitive/fluorescence; ≥ and ≤ were set here for values at or beyond the usual limits of such assays; conditions: source organism: Homo sapiens
HLA-B*27:05 = assay: IEDB peptide-MHC binding, purified MHC/competitive/fluorescence; filed as Kd, often an IC50 or EC50 that approximates it; ≥ and ≤ were set here for values at or beyond the usual limits of such assays; conditions: source organism: Shigella boydii CDC 3083-94

Sequence: GEIVLCHVL
Kd (HLA-B*40:01): 5 nM

Sequence: KVSWRWMVY
Kd (HLA-A*26:01 [9]): ≥ 20 µM
Kd (HLA-A*68:02 [10]): ≥ 20 µM
Kd (HLA-B*46:01 [11]): ≥ 20 µM
Kd (HLA-A*02:01 [12]): ≥ 20 µM
Kd (HLA-A*03:01 [13]): 4.3 nM
Kd (HLA-A*29:02 [14]): 148 nM
Kd (HLA-A*02:16 [15]): ≥ 20 µM
Kd (HLA-A*02:19): ≥ 20 µM
Kd (HLA-A*69:01 [16]): ≥ 20 µM
Kd (HLA-A*25:01 [17]): ≥ 20 µM
Kd (HLA-A*02:03): ≥ 20 µM
Kd (HLA-B*27:03 [18]): ≥ 20 µM
Kd (HLA-B*39:01; source organism: Giardia lamblia ATCC 50803): ≥ 20000 nM
Kd (HLA-A*02:12 [19]): ≥ 20 µM

Sequence: MQGKDFNHL
Kd (HLA-A*26:01 [20]): ≥ 20 µM
Kd (HLA-B*57:01): ≥ 20 µM
Kd (HLA-B*15:01): ≥ 20 µM
Kd (HLA-B*18:01 [21]): ≥ 20 µM
Kd (HLA-B*46:01 [22]): ≥ 20 µM
Kd (HLA-B*51:01 [23]): ≥ 20 µM
Kd (HLA-A*02:01 [24]): ≥ 20 µM
Kd (HLA-A*03:01 [25]): ≥ 20 µM
Kd (HLA-A*29:02 [26]): ≥ 20 µM
Kd (HLA-A*02:06): 9 nM
Kd (HLA-A*02:16 [27]): ≥ 20 µM
Kd (HLA-A*69:01 [28]): ≥ 20 µM
Kd (HLA-B*27:03 [29]): ≥ 20 µM
Kd (HLA-B*15:17): ≥ 20 µM
Kd (HLA-A*02:12 [30]): 1210 nM

Sequence: WRLVYASAV
Kd (HLA-B*27:05): 75.3 nM
Kd (HLA-B*39:01; source organism: Shigella boydii CDC 3083-94): 11.8 nM

Continued, values first:

IC50 (HLA-B*37:01): ≥ 20 µM
IC50 (HLA-B*53:01): ≥ 20 µM
IC50 (HLA-A*31:01): ≥ 20 µM
IC50 (HLA-B*40:02; source organism: Monodelphis domestica): ≥ 20000 nM
IC50 (HLA-A*68:02 [1]): ≥ 20 µM
IC50 (HLA-B*18:01 [2]): ≥ 20 µM
IC50 (HLA-B*14:02): ≥ 20 µM
IC50 (HLA-B*08:01): ≥ 20 µM
IC50 (HLA-B*51:01 [3]): ≥ 20 µM
IC50 (HLA-A*11:01): ≥ 20 µM
IC50 (HLA-A*02:01 [4]): 5.3 nM
IC50 (HLA-B*44:03): ≥ 20 µM
IC50 (HLA-A*03:01 [5]): ≥ 20 µM
IC50 (HLA-B*35:01): 206 nM
IC50 (HLA-A*29:02 [6]): 206 nM
IC50 (HLA-B*58:01 [7]): ≥ 20 µM
IC50 (HLA-A*01:01): ≥ 20 µM
IC50 (HLA-A*24:02): ≥ 20 µM
IC50 (HLA-A*25:01 [8]): ≥ 20 µM
IC50 (HLA-B*07:02): ≥ 20 µM
Sequence: FLLPILSQIYT

Kd (HLA-B*58:01 [31]): 143 nM
Sequence: QHFGLIPQW

Kd (HLA-A*02:05): 90 nM
Sequence: RLFPGLAIKI

IC50 (HLA-B*40:02; source organism: Homo sapiens): 12.4 nM
IC50 (HLA-B*44:02): ≥ 20 µM
Sequence: SDFQVHFL
